Reference: the supplement of paper PMC6757056
± gives the standard deviation of the averaged measurements.

B1: library; a variant is named by its letters at N, in order (parent)
chain: GCUGUCACCGGUGCUUGGUACGUUAUAUUCAGCCGGUCUGAUGAGUCUNNNNNNAGACGAAACAGC

What was measured:
(6R,S)-folinic acid [1] = variants of: B1; assay: normalized RNA/DNA level without ligand (relative to sTRSVctl = 100) (log10 (% of sTRSVctl)); HEK293T overexpressing SLC46A1; higher = less ribozyme self-cleavage, higher mRNA level; details: without (6R,S)-folinic acid; ligand present: no
How it was run: (§1)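 Ribozyme switch library plasmids with mCherry reporters (eGFP in certain ligand experiments) went into HEK293T cells at 4 µg per 6-well well. Where ligand was used, it was applied 1 h before transfection, and total RNA was extracted with EDTA 72 h later for reverse transcription, amplification, barcoding and sequencing. RNA level is the RNA-to-DNA read ratio normalized to a spiked-in non-cleaving sequence or to the leading sequences, then scaled and log-transformed. Scaling was ×100 with log10, the leading set comprised 25 sequences, and the cutoff was ≥100 DNA reads.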

(6R,S)-folinic acid [2] = variants of: B1; assay: normalized RNA/DNA level with ligand (relative to sTRSVctl = 100) (log10 (% of sTRSVctl)); HEK293T overexpressing SLC46A1; ligand concentration (+) RNA-Seq: 6 mM; higher = less ribozyme self-cleavage, higher mRNA level; details: with (6R,S)-folinic acid; ligand present: yes
How it was run: as §1

Variant | normalized RNA/DNA level without ligand (log10) ((6R,S)-folinic acid [1]) | normalized RNA/DNA level with ligand (log10) ((6R,S)-folinic acid [2])
GCUGUCACCGGUGCUUGGUACGUUAUAUUCAGCCGGUCUGAUGAGUCUGUGAACAGACGAAACAGC | 1.908 ± 0.0094 | 2.012 ± 0.0064
GCUGUCACCGGUGCUUGGUACGUUAUAUUCAGCCGGUCUGAUGAGUCUUUGAACAGACGAAACAGC | 2 ± 0.023 | 2.025 ± 0.016
GCUGUCACCGGUGCUUGGUACGUUAUAUUCAGCCGGUCUGAUGAGUCUCUGAAGAGACGAAACAGC | 1.881 ± 0.0031 | 1.995 ± 0.0079
GCUGUCACCGGUGCUUGGUACGUUAUAUUCAGCCGGUCUGAUGAGUCUCUGAAUAGACGAAACAGC | 1.96 ± 0.003 | 1.99 ± 0.045
GCUGUCACCGGUGCUUGGUACGUUAUAUUCAGCCGGUCUGAUGAGUCUUUGAAUAGACGAAACAGC | 1.955 ± 0.0032 | 2.01 ± 0.025
GCUGUCACCGGUGCUUGGUACGUUAUAUUCAGCCGGUCUGAUGAGUCUCUGACAAGACGAAACAGC | 1.996 ± 0.01 | 2.03 ± 0.022
GCUGUCACCGGUGCUUGGUACGUUAUAUUCAGCCGGUCUGAUGAGUCUUUGACAAGACGAAACAGC | 1.956 ± 0.018 | 1.98 ± 0.021
GCUGUCACCGGUGCUUGGUACGUUAUAUUCAGCCGGUCUGAUGAGUCUAUGACCAGACGAAACAGC | 2.046 ± 0.0045 | 2.024 ± 0.014
GCUGUCACCGGUGCUUGGUACGUUAUAUUCAGCCGGUCUGAUGAGUCUCUGACCAGACGAAACAGC | 2.05 ± 0.017 | 2.01 ± 0.033
GCUGUCACCGGUGCUUGGUACGUUAUAUUCAGCCGGUCUGAUGAGUCUUUGACCAGACGAAACAGC | 2.04 ± 0.0038 | 2.04 ± 0.032
GCUGUCACCGGUGCUUGGUACGUUAUAUUCAGCCGGUCUGAUGAGUCUCUGACGAGACGAAACAGC | 2 ± 0.006 | 2.046 ± 0.02
GCUGUCACCGGUGCUUGGUACGUUAUAUUCAGCCGGUCUGAUGAGUCUGUGACGAGACGAAACAGC | 1.95 ± 0.017 | 2 ± 0.032
GCUGUCACCGGUGCUUGGUACGUUAUAUUCAGCCGGUCUGAUGAGUCUUUGACGAGACGAAACAGC | 1.866 ± 0.0091 | 1.996 ± 0.019
GCUGUCACCGGUGCUUGGUACGUUAUAUUCAGCCGGUCUGAUGAGUCUCUGACUAGACGAAACAGC | 2.028 ± 0.004 | 2 ± 0.023
GCUGUCACCGGUGCUUGGUACGUUAUAUUCAGCCGGUCUGAUGAGUCUGUGACUAGACGAAACAGC | 2.029 ± 0.0025 | 2.04 ± 0.041
GCUGUCACCGGUGCUUGGUACGUUAUAUUCAGCCGGUCUGAUGAGUCUUUGACUAGACGAAACAGC | 2.0063 ± 0.0015 | 2.04 ± 0.053
GCUGUCACCGGUGCUUGGUACGUUAUAUUCAGCCGGUCUGAUGAGUCUCUGAGCAGACGAAACAGC | 2.0258 ± 0.00095 | 2.01 ± 0.019
GCUGUCACCGGUGCUUGGUACGUUAUAUUCAGCCGGUCUGAUGAGUCUGUGAGCAGACGAAACAGC | 1.74 ± 0.024 | 1.962 ± 0.011
GCUGUCACCGGUGCUUGGUACGUUAUAUUCAGCCGGUCUGAUGAGUCUUUGAGCAGACGAAACAGC | 2.006 ± 0.005 | 2.05 ± 0.049
GCUGUCACCGGUGCUUGGUACGUUAUAUUCAGCCGGUCUGAUGAGUCUAUGAGGAGACGAAACAGC | 1.812 ± 0.017 | 2.009 ± 0.013
